Measured values published in IntAct's records for PubMed 25686249.

Tests used:
pdc6i_human PDCD6IP = pdc6i_human PDCD6IP (UniProt Q8WUM4)
atg12_mouse Atg12 = atg12_mouse Atg12 (UniProt Q9CQY1)
atg12_mouse Atg12, sequence (Q9CQY1 whole entry): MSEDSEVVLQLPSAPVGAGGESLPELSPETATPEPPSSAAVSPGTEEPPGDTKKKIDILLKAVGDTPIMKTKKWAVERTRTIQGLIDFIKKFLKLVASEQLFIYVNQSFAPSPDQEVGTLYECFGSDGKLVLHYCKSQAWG

Ubiquitin-like-conjugating enzyme ATG3 (Mus musculus), Q9CPX6 K243R, sequence (Q9CPX6 whole entry K243R): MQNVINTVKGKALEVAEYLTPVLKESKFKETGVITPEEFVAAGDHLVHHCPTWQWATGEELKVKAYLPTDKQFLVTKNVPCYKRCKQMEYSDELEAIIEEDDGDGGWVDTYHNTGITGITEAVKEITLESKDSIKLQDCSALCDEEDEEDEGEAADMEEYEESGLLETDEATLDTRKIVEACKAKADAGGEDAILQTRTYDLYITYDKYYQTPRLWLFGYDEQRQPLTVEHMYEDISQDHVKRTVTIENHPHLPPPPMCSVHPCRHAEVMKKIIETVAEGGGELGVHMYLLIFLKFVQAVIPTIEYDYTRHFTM
pdc6i_human PDCD6IP, sequence (Q8WUM4 whole entry): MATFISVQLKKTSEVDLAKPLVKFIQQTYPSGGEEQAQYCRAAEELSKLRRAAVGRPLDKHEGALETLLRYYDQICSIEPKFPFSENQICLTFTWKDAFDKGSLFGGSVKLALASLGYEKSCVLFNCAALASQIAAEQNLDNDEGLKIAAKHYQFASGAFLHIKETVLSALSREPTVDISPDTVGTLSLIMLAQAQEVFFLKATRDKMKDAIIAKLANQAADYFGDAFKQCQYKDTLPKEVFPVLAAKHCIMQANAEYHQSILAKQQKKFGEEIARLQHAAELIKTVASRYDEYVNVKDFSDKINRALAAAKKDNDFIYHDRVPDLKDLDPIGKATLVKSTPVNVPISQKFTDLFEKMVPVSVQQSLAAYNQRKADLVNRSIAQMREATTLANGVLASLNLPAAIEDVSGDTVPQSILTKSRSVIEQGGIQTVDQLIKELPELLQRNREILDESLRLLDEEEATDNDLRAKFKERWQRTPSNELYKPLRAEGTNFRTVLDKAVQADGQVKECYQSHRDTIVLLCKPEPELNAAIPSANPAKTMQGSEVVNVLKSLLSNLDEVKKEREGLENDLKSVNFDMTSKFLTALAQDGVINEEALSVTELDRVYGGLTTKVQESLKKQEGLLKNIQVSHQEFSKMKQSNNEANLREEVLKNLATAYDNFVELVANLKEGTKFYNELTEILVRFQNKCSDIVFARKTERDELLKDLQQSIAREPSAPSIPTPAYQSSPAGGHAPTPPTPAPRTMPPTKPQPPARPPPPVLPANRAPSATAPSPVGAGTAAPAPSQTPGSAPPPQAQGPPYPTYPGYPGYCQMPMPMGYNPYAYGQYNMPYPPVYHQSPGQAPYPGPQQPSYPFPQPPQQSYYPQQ

## Ubiquitin-like-conjugating enzyme ATG3 (Mus musculus), Q9CPX6 K243R
pdc6i_human PDCD6IP
  effect of a mutation on the interaction: disrupting interaction strength
atg12_mouse Atg12
  effect of a mutation on the interaction: disrupting interaction strength
